In article PMC10427625, “Structural basis for negative regulation of the Escherichia coli maltose system” (Nature Communications, 2023):

Experiments:
Test in all cases: pull-down; GST-tagged MalY incubated with an excess of WT or mutant MalT on ice for 30 min, Glutathione Sepharose 4B, buffer TKCl with 0.1 mM ADP and 10 μM PLP; elution with 20 mM glutathione, SDS-PAGE, Coomassie
Conditions in all cases: both partners purified
[1] = target: T1, MalT (wild type), N-terminally His-tagged (Escherichia coli, UniProt P06993 1-901)
T1 construct: Purified with 0.1 mM ADP or 0.4 mM ATP; the elution at 103 kDa fits the whole protein; In PDB 8BOB only residues 1-423 are well defined; also called WT MalT; MalT WT; source: E. coli BL21 (DE3) ΔmalT220, purified (Ni Sepharose, gel filtration)
T1 sequence (looked up): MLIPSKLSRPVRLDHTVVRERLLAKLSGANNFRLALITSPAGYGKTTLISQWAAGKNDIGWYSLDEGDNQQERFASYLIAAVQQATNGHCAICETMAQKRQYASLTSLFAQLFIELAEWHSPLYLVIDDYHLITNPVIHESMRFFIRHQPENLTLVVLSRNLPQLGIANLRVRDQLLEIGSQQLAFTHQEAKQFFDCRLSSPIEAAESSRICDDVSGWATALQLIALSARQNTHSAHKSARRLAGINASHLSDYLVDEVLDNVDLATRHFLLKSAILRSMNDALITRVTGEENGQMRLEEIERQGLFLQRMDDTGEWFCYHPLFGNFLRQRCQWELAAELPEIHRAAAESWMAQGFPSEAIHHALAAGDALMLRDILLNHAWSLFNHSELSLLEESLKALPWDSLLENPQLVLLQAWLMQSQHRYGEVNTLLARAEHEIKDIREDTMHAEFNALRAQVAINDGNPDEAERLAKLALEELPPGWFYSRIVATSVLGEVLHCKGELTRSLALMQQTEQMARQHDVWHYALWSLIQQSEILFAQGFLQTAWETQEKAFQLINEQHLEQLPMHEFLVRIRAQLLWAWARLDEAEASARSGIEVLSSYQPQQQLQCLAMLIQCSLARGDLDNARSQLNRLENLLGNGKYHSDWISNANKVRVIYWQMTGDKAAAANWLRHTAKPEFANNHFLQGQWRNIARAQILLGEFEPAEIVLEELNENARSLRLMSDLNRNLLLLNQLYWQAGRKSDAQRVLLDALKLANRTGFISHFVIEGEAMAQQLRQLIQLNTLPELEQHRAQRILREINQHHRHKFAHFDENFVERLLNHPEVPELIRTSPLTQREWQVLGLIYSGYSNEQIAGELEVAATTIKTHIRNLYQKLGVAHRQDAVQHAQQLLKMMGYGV

[2] = target: T2, MalT-E140A, N-terminally His-tagged (Escherichia coli, UniProt P06993 1-901, E140A)
T2 construct: MalT of Escherichia coli, variant of plasmid pOM206 made by site-directed mutagenesis; source: E. coli BL21 (DE3) ΔmalT220, purified (Ni Sepharose, gel filtration)
T2 sequence (looked up): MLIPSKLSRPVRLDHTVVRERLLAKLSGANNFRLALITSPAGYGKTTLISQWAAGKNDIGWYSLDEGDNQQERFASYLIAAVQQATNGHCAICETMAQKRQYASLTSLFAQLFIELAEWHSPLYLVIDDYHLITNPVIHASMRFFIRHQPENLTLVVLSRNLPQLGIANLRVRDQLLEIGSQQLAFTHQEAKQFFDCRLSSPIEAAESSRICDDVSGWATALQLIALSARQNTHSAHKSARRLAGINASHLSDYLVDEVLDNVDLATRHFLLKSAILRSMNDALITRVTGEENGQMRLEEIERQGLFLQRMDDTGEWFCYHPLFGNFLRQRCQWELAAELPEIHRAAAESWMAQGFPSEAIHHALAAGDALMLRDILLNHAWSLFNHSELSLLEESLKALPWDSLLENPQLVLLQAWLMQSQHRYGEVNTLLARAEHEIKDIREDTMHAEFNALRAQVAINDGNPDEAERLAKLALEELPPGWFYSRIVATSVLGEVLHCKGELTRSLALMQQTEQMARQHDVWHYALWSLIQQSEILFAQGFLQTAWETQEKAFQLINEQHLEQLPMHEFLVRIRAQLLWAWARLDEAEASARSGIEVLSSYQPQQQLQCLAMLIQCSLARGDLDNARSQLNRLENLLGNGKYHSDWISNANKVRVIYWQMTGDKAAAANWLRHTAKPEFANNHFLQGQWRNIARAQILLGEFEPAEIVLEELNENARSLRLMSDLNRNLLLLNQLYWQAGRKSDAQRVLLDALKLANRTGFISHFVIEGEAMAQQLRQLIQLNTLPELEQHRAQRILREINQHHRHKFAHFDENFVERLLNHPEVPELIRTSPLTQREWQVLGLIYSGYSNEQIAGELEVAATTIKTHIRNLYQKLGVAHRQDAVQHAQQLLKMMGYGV

[3] = target: T3, MalT-N169A, N-terminally His-tagged (Escherichia coli, UniProt P06993 1-901, N169A)
T3 construct: MalT of Escherichia coli, variant of plasmid pOM206 made by site-directed mutagenesis; source: E. coli BL21 (DE3) ΔmalT220, purified (Ni Sepharose, gel filtration)
T3 sequence (looked up): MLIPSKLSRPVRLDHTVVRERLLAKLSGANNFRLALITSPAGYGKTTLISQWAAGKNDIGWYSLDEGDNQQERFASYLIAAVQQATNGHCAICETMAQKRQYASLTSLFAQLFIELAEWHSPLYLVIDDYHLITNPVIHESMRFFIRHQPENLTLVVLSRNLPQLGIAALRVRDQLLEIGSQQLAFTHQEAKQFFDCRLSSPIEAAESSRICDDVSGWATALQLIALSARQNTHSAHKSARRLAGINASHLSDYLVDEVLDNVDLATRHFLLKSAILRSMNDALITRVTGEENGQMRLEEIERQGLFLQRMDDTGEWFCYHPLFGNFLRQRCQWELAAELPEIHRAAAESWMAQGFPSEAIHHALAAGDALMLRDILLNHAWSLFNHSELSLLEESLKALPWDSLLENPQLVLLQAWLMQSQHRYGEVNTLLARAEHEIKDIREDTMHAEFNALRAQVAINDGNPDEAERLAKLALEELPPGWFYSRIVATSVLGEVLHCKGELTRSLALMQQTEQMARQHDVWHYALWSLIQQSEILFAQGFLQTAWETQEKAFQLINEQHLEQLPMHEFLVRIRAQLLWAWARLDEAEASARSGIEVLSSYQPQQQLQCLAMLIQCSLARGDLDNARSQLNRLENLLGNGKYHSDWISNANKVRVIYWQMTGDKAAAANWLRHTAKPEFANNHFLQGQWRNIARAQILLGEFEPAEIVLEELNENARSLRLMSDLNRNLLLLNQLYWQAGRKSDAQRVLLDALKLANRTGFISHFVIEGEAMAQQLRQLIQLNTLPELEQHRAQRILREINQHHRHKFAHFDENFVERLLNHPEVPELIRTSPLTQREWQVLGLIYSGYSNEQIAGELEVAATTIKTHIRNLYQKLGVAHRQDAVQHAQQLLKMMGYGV

binding result [1]: binds | binding result [2]: binds | binding result [3]: binds
B1: N-terminally GST-tagged MalY (enzyme, Escherichia coli, UniProt P23256 1-390, looked up)
chain: MFDFSKVVDRHGTWCTQWDYVADRFGTADLLPFTISDMDFATAPCIIEALNQRLMHGVFGYSRWKNDEFLAAIAHWFSTQHYTAIDSQTVVYGPSVIYMVSELIRQWSETGEGVVIHTPAYDAFYKAIEGNQRTVMPVALEKQADGWFCDMGKLEAVLAKPECKIMLLCSPQNPTGKVWTCDELEIMADLCERHGVRVISDEIHMDMVWGEQPHIPWSNVARGDWALLTSGSKSFNIPALTGAYGIIENSSSRDAYLSALKGRDGLSSPSVLALTAHIAAYQQGAPWLDALRIYLKDNLTYIADKMNAAFPELNWQIPQSTYLAWLDLRPLNIDDNALQKALIEQEKVAIMPGYTYGEEGRGFVRLNAGCPRSKLEKGVAGLINAIRAVR
notes: MalY of E. coli; full-length malY amplified from E. coli genomic DNA, cloned in pGEX-6P-1; Bait of the pull-down; 10 μM PLP present; not shown: GST, N-terminal, kept
